Data set [1] is described as follows: Microsomal cytochrome P450 enzyme assay of PsCFS and PsSPSΔN incubated with (S)-scoulerine. Format: biochemical, Papaver somniferum. The note with it: microsomes with PsCPR; 125 μM (S)-scoulerine, 500 μM NADPH. The procedure: The pESC-CPR vector encoding opium poppy cytochrome P450 reductase (PsCPR) fused to a c-Myc tag was used for the heterologous expression of plant proteins in S. cerevisiae^25. The amplicon was inserted into NotI and SpeI restriction sites of pESC-CPR in-frame with a FLAG-tag sequence yielding pESC-CPR/CFS. […]
Analysis of enzyme assays was performed using an Agilent™ 1200 liquid chromatography system equipped with a 6410 triple-quadrupole mass spectrometer (Agilent Technologies; Santa Clara, Calif.). […] Scoulerine, cheilanthifoline, and stylopine were detected in multiple reaction monitoring (MRM) mode using a collision energy of 25 eV and monitored transitions of m/z 328→178, 326→178 and 324→176, respectively.
Constructs for the heterologous expression of PsCFS and PsSPS in S. cerevisiae were assembled in a vector harbouring PsCPR (Table 1 above). […] No conversion of scoulerine was detected in the negative control. […]

A further data set relates to nandinine. The data set can be described thus: CYP719 Ring B closure of nandinine to stylopine in GC1333. Format: cell-based, Saccharomyces cerevisiae. As for the experimental part:
(§1) FIG. 11A-B: showing conversion of (S)-cheilanthifoline (FIG. 11A) or (S)-nandinine (FIG. 11B) to (S)-stylopine by purchased CYP719s. Plasmids harboring CYP719s were transformed into GC1333 containing an integrated PsCPR. Strains were incubated with the appropriate BIA overnight, and then total BIAs were extracted and total molar ratios were compared. PsSPSΔN was used as a control.
(§2) The 10 CYP719s with 95% activity on Ring A of scoulerine and the 10 CYP719s with activity on Ring B of scoulerine were tested for activity on cheilanthifoline and nandinine, respectively, in order to generate a branched stylopine synthesis pathway. […] CYP719s PsCFS and EX101, capable of converting >98% of scoulerine to cheilanthifoline and nandinine, respectively, were incubated with scoulerine. After 16 h, cells were pelleted and the supernatant fraction was collected. The supernatant was then applied to fresh yeast strains in order to supplement them with either TE containing nandinine or cheilanthifoline as necessary.

Another data set relates to scoulerine. The data set can be described thus: CYP719s in GC1316 (integrated PsCPR and PsCFS) supplemented with scoulerine. In kind it is cell-based, Saccharomyces cerevisiae. The note with it: CYP719 expressed with PsCFS and PsCPR. From the text:
Plasmids harboring CYP719s were transformed into either GC1333 containing an integrated PsCPR (FIG. 10A) or GC1316 containing an integrated PsCPR and an integrated PsCFS (FIG. 10B). Strain GC1333, harboring PsCPR integrated into the chromosome, was transformed with pBOT plasmids, with GFP removed, harboring individual CYP719s (CYP719 EX41-105). (See Tables 7-8 below presenting the nature and activity of these CYP719s).
Plasmids harboring individual CYP719s were transformed into strain GC1316, which harbored PsCPR and PsCFS integrated into the genome. Strains were supplemented with scoulerine and after 16 hours total BIAs were extracted and the molar ratio was compared (FIG. 10B). The four possible BIAs that could be extracted were scoulerine, the single Ring A product nandinine, the single Ring B product cheilanthifoline, and the double Ring A, Ring B product stylopine.

Another data set has as its system cheilanthifoline. The experiment in a line: CYP719 Ring A closure of cheilanthifoline to stylopine in GC1333. Format: cell-based, Saccharomyces cerevisiae. The procedure:
as §1, §2

B1: EX94: N-truncated Papaver somniferum stylopine synthase (CYP719A20) with lettuce germacrene A oxidase N-terminal domain, SEQ ID NO: 373 (protein, listed as Papaver somniferum)
chain: MELSITTSIALATIVFFLYKLATRPKSTKKQLPEASRLPIIGHKRKKSSTMVWPTGPKTLPIIGNMHVLGGTALQVVLHNLAKIHGNVMTIWIGSWRPVIVVSDIDRAWEVLVNKSSDYSARDMPEITKIISADWKTISTSDSGPGWSNLRKGLQNVALSPHNLAAQSQFQEKDITKMIQSLKKEAASNNGIVKPIDHLKKATLRLISRLIFGQDFDDDKYVDDMHHAIEELIRVSGYAQLAEAFYYAKYLPSHKKAVRDVEEANQRVKKLVRPFLSLNPPTNTYLHFLNSQKYDEEVIIFAIFEAYLLGVDSTSLTTAWALAFLIREPVVQDKLYQELKNLTAKNDCEIVKVEDLNKLQYLQAVLKETMRMKPIAPLAIPHKACRDTSLKGNKIDQGTQVMVNIYALHHNEKVWKEPFKFMPERFLQTQDVVNGKGMEQSLLPFSAGMRICAGMELGKLQFSFSLANLVNAFEWSCVSDGVLPDMSDQLGFVLLMKTPLQARIVPRV
Consider B1, for which the “conversion of (S)-scoulerine by microsomal proteins (LC-MS products)” value in data set [1] is “converted to cheilanthifoline and stylopine”.

B2: EX98: CYP719 from Stylophorum diphyllum, SEQ ID NO: 377 (protein, listed as Stylophorum diphyllum)
chain: MEESFWLVTATVVVVFVIAKLQFRKSSSISTMEWPAGPKTLPIIGNLHQLGGAALHVVLANLAKAYGSVMTIWVGSWRPMIVISDFDKAWEVLVNKSSDYSARSLPEITRIISANWKNIMTSDSGPFWQNLRKGLQSGALSPHNVMSQYQLQERDMQNLIKTMRVEAFKNNGRIKPLDHLKQETVRLLSRLIFGQDFNDEKLVVGMHHALDDLVRISGYASLADAFKFAENLPSHKKSIREVHELKKRVENLVRPHIVSNPPTNTYLNFLQSQNFSEDLIISAILEVYDLGVDSTASTTVWALTFLVRELKVQEKLYQEIKNLTGGRSTVKVEEVSKMPYLQAVMKETMRMKPIAPMAIPHTAARETSLMGKKIDKGTVVMVNLYAIHHNPNIFPEPYKFMPERFLHGEEQNGGNIKEMEQSLLPFSAGMRICAGMELGKLQLGFALASLVNAFKWECAVDGKLPDMSEDHCFILLMKNPLEAKITPRTH
As for B2, the “conversion of nandinine to stylopine” value with nandinine is listed as greater than 98%.

B3: EX50: CYP719 from Coptis japonica, Q948Y1.1, SEQ ID NO: 329 (protein, listed as Coptis japonica)
chain: MEMNPLLVCATVAIVFATTTIIRILFSSSSLPQMKWPSGPRKLPIIGNLHQLGDDVLHVALAKLAKVHGSVMTIWIGSWRPVIVISDIEKAWEVLVNKSADYGARDMPEITKIASASWHTISTSDAGSFWQNVRKGLQSGAMGPLNVAAQNQYQERDMKRLIKAMSDEAANNNGIVKPLDHIKKNTVRLLTRLIFGQAFDDNKFIESMHYEIEDIIRISGYARLAEAFYYAKYLPSHKKAEREAFLVKCRVEELVRPLLSSKPPTNSYLYFLLSQNFEEEVIIFCIFELYLLGVDSTSSTTTWALAYLIREQGAQEKLYQDIRMTLGDVDLVKIEDVNKLKYLQGVVKETMRMKPIAPLAIPHKTAKETTLMGTKVAKGTRIMVNLYALHHNQNIWPDPYKFMPERFLEGETGTAYNKAMEQSFLPFSAGMRICAGMDLGKLQFAFALANLVNAFKWSCVEEGKLPDMGEELSFVLLMKTPLEARIAGRNV
In the case of B3, the residual cheilanthifoline result in the data set on scoulerine is listed as “residual cheilanthifoline was detected”. Also, the “conversion of cheilanthifoline to stylopine” value in the data set on cheilanthifoline was greater than 98%.

B4: EX60: CYP719 from Eschscholzia californica, BAG75114.1, SEQ ID NO: 339 (protein, listed as Eschscholzia californica)
chain: MEEMKFLMMNNPWVLTATFTTLLISIFLFVTRKTSNTEWPNGPKTLPIIGNMHLLGGTKALQVILHNLAKVYGGVMTIWIGSWRPVIIVSDIERAWEVLVNKSSDYSARELPEIIKYNAANFRTIATCDSGPHWSNLRKGLQNVALSPHNLAAQFQFQEKDITKMIQNLEVEAKNNNGIVQPLDHLKKATIRLISRLIFGQDFDEDTYVEKLHHTIDELIRMSGYAQLAEAFYYARYLPNHKKAVNHAAKTKQIVTHLMRPFLSLNPPTNSYLHFLQSQNYDEELIIFSIFEVYLLGVDSTSSTTAWALAYLVREPNVQETLYQELDNFAKQNDRKILKVEDINKLQYLQAVTKETMRMKPIAPLAIPHKASRDTTLMGKKVEKGTKVMVNLHALHHNENVFNDPYKFMPERFLKSYQGAKAKAMEQSYLPFSAGMRICGGMEVGKLQFGFALANLAYAFKWSCAVNGVLPDMSDELGFVLFMKTPLEARIVRRN
As to B4, in the data set with scoulerine, the residual cheilanthifoline result is “residual cheilanthifoline was detected”.

B5: EX54: CYP719 from Chelidonium majus, SEQ ID NO: 333 (protein, listed as Chelidonium majus)
chain: MEESFWLVAATVLVVFVVAKLLFRKSSSISTMEWPAGPKTLPIIGNLHQLGGAALHVVLANLAKVYGSVMTIWVGAWRPMIVISDIDKAWEVLVNKSSDYSARSLPEITRIISANWKNIMTSDSGPFWQNLRKGLQGGALSPHNVMSQYQLQERDMQNLIKTMRVEASKNNGRIKPLDHLKQETVRLLSRLIFGQDFNDEKLVVGMHHALDDLVRISGYASLADAFKVAENLPSHKKSIREVHELKRRVENLVRPHIVSNPPTNTYLNFLLSQNFSEDLIISAILEVYDLGVDSTASTTVWALTFLVREQKVQEKLYQEIKNLTGGRSTVKVEEVSKMPYLQAVMKETMRMKPIAPMAIPHTAARETSLMGKKIDKGTVVMVNLYAIHHNPNIFPEPYKFMPERFLHGEEQNGGNIKEMEQSLLPFSAGMRICAGMELGKLQLGFALASLVNAFKWECAADGKLPDLSEDHCFILLMKNPLEAKITPRTH
For B5, the “conversion of nandinine to stylopine” value in the data set on nandinine is recorded as greater than 98%.

B6: EX72: CYP719 from Nandina domestica, SEQ ID NO: 351 (protein, listed as Nandina domestica)
chain: MDPMSLWAAIAIVLVMTLLVLLQTRTKSLPSSSTQWPTGPKTLPIIGNLHQLEGDVFHVALAKLAKMHGDIMTIWIGSWRPVIVISDYDKAWEVLVNKSSDYSARDMPEITKIASAGWRTISLSSSGPFWHTLRKGLQNGPFGPLNVSAQILSQERDMRRMIRDMQEEADINGGIVKPLGHLKKATVGLLTRLIFGQNFDDDSFIESIHHETEELIRISGYARLAEAFSYAKYLPSHRRAVKESYECKHRVEELVKPLLSSNPPKNSYLNFLQSQDYPEEVIIFCIFEIYLLGVDSTSSTTTWALAFLIHEPAVQEKLYQEVKCITNGDGGLVKAGDLSKFQYLQAVMKETMRMKPIAPLAIPHTTSKDTTLMGTKVAKGTRIMVNLYALHHNPNIWSEPFKFMPERFLQEQFNGVGGDANVKAIEQSFLPFSAGMRICAGMDLGKLQFSFALANLVNAFKWTTVADGKFPDMNEELSFVLLMKTPLEARIVPRKP
For the molecule B6, in the data set with scoulerine, the residual cheilanthifoline result is recorded as “residual cheilanthifoline was detected”.
